According to paper PMC12426278:

Key:
[1] = biological target: huCD147mt-Strep (glycosylation-deficient soluble extracellular domain of human CD147, Strep-tag II) (human); assay: BLI; Octet Red96e; […] (20 μg/mL) […]; 25 mM HEPES, 150 mM NaCl pH 7.5, 0.04% Tween-20; global 1:1 model
[2] = biological target: huCD147-Strep (soluble extracellular domain of human CD147, Strep-tag II) (human); assay: as above

| Substance | Kd [1] | Kd [2] |
| --- | --- | --- |
| [change] (soluble extracellular domain of H1N1 HA) (from UniProt P03452 18-528) (domain or fragment) | 500 nM | 700 nM |
| [change] (soluble extracellular domain of H9N2 HA) (domain or fragment) | 200 nM | 310 nM |
